Reference: the supplement of paper PMC7125110
± gives the standard error. For part of these data: Variants at the floor of the assay were thinned out.

B1: glmS ribozyme (parent)
chain: AUAAAAGCGCCAGAACUACAGAAAUGUAGUUGACGAGGAGGAGGUUUAUCGAAUUUUCGGCGGAUGCCUCCAAA

Legend:
Conditions in all cases: with glucosamine-6-phosphate
glucosamine-6-phosphate [1] = variants of: B1; experiment: kcat; higher = faster cleavage; RNA array
Summary of the method: (§1)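 Weighted Michaelis–Menten fits across concentrations supplied kcat and KM, based on kobs from one- or two-exponential decay fits to normalised per-tile medians. The data came from barcoded ribozyme variants transcribed in situ by E. coli RNA polymerase on sequenced MiSeq chips and tracked at 37 °C by a hybridised Cy3 probe. Glucosamine-6-phosphate (40 μM to 10 mM) in HEPES/KCl/Mg(OAc)2 buffer was flowed in.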

glucosamine-6-phosphate [2] = variants of: B1; experiment: self-cleavage kobs at 640 uM GlcN6P; higher = faster cleavage; RNA array
Summary of the method: as §1

glucosamine-6-phosphate [3] = variants of: B1; experiment: self-cleavage kobs at 2500 uM GlcN6P; higher = faster cleavage; RNA array
Summary of the method: as §1

glucosamine-6-phosphate [4] = variants of: B1; experiment: self-cleavage kobs at 10000 uM GlcN6P; higher = faster cleavage; RNA array
Summary of the method: as §1

glucosamine-6-phosphate [5] = variants of: B1; experiment: KM; higher = weaker cofactor use; RNA array
Summary of the method: as §1

glucosamine-6-phosphate [6] = variants of: B1; experiment: self-cleavage kobs at 40 uM GlcN6P; higher = faster cleavage; RNA array
Summary of the method: as §1

glucosamine-6-phosphate [7] = variants of: B1; experiment: self-cleavage kobs at 160 uM GlcN6P; higher = faster cleavage; RNA array
Summary of the method: as §1

Variant	kcat (glucosamine-6-phosphate [1]) [s⁻¹]	self-cleavage kobs at 640 uM GlcN6P (glucosamine-6-phosphate [2]) [s⁻¹]	self-cleavage kobs at 2500 uM GlcN6P (glucosamine-6-phosphate [3]) [s⁻¹]	self-cleavage kobs at 10000 uM GlcN6P (glucosamine-6-phosphate [4]) [s⁻¹]	KM (glucosamine-6-phosphate [5]) [µM]	self-cleavage kobs at 40 uM GlcN6P (glucosamine-6-phosphate [6]) [s⁻¹]	self-cleavage kobs at 160 uM GlcN6P (glucosamine-6-phosphate [7]) [s⁻¹]
C11A C67A	6.14e-05 ± 1e-05	7.25e-05 ± 1.2e-05	6.18e-05 ± 1.1e-05	5.12e-05 ± 9.8e-06			
U46A C67A	0.00257 ± 0.00048	0.000988 ± 0.0002	0.00266 ± 0.00097	0.00209 ± 0.0006	1060 ± 330	8.65e-05 ± 2.9e-05	
U46A C67G	0.000319 ± 2.1e-05	6.75e-05 ± 1.1e-05	0.000187 ± 3.5e-05	0.000254 ± 3.3e-05	2290 ± 290		
C16G U47G C50G C68G	1.23e-05 ± 1.9e-06						
U31C A42U	1.58e-05 ± 4.1e-06					< 1e-05	< 1e-05
C8A G37C G38A C70U	1.14e-05 ± 3.5e-06						
A39G U69G	0.000101 ± 1.5e-05	7.75e-05 ± 1.3e-05	0.000143 ± 1.7e-05	9.32e-05 ± 1e-05		4.07e-05 ± 1.3e-05	0.000114 ± 3.2e-05
G29C G66A	0.00186 ± 0.00025	0.00027 ± 3.9e-05	0.000714 ± 0.00013	0.00132 ± 0.0002	4030 ± 750		6.45e-05 ± 1.3e-05
U31A U47C	0.0025 ± 0.0005	0.000511 ± 0.00012	0.00117 ± 0.00017	0.00174 ± 0.00034	3290 ± 980	3.34e-05 ± 1.3e-05	9.34e-05 ± 2.4e-05
C11U A39G	0.00395 ± 0.00067	0.00116 ± 0.00026	0.00192 ± 0.00036	0.00358 ± 0.00044	1780 ± 480	7.9e-05 ± 1.3e-05	0.00047 ± 9.6e-05
U30A G40A	0.0022 ± 0.0011	0.000134 ± 5.6e-05	0.000927 ± 0.0002	0.0014 ± 0.00025		4.53e-05 ± 1.6e-05	7.47e-05 ± 1.6e-05
A14C U30G	0.00408 ± 0.001	0.000417 ± 7.1e-05	0.00127 ± 0.00034	0.00267 ± 0.00036	5380 ± 1800	5.32e-05 ± 1.3e-05	0.000107 ± 2e-05
G63C C70U	< 1e-05		< 1e-05			< 1e-05	
G29U A64G	0.00507 ± 0.0025	0.000939 ± 0.0002	0.00221 ± 0.00045	0.00594 ± 0.00078		0.000212 ± 3.2e-05	0.000495 ± 0.00011
U31G G59A C70G	3.81e-05 ± 8.1e-06		3.86e-05 ± 1.5e-05				
U55C U69G	1.99e-05 ± 1.9e-06						
G51A U54A G59A C68G	2.9e-05 ± 7.6e-06						
